Test results from patent publication US20100135991A1 (published 2010).

T1: zinc-binding alcohol dehydrogenase domain containing 2 (UniProt Q8N4Q0 1-377, limits assumed)
T1 construct: also called unrelated protein
T1 sequence (looked up): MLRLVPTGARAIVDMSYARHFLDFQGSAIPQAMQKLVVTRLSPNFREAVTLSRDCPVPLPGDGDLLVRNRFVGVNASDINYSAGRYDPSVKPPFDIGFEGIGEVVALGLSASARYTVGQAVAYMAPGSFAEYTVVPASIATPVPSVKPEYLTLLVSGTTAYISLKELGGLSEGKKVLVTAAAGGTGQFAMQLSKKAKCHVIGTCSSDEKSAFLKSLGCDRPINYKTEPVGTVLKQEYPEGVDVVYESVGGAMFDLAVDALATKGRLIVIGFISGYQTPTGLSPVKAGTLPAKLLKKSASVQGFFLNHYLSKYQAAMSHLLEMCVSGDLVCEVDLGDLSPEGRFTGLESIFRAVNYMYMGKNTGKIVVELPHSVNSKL

T2: human ORP150-3x Flag with deletion of amino acids 673-752 (human, UniProt Q9Y4L1 33-999)
T2 construct: Deletion mutant made by overlapping PCR, expressed in Flp-In CHO cells
T2 sequence: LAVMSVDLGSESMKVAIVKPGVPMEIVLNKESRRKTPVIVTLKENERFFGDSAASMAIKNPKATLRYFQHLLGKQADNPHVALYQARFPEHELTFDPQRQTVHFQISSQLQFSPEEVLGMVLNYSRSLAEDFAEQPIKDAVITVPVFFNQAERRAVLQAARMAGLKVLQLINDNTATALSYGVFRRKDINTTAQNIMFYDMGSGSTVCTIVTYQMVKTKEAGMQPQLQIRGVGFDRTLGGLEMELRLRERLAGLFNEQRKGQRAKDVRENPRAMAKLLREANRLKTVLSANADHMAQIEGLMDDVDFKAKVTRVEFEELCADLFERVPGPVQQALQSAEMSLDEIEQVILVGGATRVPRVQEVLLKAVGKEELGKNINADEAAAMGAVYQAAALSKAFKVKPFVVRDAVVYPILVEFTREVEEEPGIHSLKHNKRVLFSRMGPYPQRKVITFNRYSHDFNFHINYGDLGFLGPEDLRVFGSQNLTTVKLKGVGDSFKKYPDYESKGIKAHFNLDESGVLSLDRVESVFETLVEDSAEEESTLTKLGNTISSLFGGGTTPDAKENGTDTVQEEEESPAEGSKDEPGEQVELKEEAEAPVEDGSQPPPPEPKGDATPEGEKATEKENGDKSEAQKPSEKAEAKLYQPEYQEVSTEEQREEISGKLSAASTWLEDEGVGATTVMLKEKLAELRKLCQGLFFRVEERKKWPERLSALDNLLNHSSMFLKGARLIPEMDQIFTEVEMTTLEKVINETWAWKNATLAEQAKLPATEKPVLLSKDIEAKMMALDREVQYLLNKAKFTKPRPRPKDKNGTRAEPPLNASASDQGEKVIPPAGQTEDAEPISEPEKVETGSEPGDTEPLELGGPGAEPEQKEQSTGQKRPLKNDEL

T3: human ORP150-3x Flag with deletion of amino acids 723-732 (human, UniProt Q9Y4L1 33-999)
T3 sequence: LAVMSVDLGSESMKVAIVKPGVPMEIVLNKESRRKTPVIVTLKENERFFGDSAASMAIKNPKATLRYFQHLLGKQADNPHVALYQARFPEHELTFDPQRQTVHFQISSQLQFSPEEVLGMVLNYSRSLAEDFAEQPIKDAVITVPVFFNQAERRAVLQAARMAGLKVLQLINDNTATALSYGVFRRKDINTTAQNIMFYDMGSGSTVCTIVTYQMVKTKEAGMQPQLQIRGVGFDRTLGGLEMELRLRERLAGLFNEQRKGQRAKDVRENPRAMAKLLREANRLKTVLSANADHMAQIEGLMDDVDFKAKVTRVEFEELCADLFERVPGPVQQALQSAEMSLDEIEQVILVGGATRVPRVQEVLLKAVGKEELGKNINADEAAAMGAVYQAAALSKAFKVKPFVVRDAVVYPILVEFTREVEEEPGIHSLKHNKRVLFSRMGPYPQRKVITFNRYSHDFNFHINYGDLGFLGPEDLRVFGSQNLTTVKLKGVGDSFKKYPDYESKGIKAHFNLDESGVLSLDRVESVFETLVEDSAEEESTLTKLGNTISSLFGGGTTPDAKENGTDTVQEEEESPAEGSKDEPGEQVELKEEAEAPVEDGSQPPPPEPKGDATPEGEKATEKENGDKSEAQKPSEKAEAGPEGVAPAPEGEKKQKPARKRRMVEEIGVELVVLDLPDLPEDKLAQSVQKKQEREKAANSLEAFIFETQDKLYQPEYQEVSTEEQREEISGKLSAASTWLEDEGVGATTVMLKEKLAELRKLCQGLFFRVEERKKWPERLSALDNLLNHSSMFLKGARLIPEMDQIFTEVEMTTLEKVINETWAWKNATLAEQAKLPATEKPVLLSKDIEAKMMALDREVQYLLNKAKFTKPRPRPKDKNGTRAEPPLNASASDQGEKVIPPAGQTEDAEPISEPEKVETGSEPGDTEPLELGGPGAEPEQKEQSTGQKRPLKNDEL


Legend:
[1] = biological target: T1, zinc-binding alcohol dehydrogenase …; assay: Western blot
Experimental: Western blot was performed to confirm the binding specificity of antibody 3B6.1, 6A4.28 and 9A6.2. […] The amino acid sequences of the heavy and light chain variable region of antibody 3B6.1 (IgM, K), 6A4.28 (IgM, K) and 9A6.2 (IgM, K) are shown in FIGS. 3A and 3B, 4A and 4B, and 5A and 5B, respectively.

[2] = biological target: T2, human ORP150-3x Flag with deletion of …; assay: anti-FLAG capture ELISA and Western blot
Experimental: (§1) Binding of 5F4 to the ORP150 wild type or mutant proteins generated from the supernatant of the transfected cells were tested using ELISA assay by coating the surface with anti-FLAG antibody, allowing binding of the ORP150 proteins in the supernatant to the anti-FLAG antibody, and detecting binding of 5F4 to the ORP150 proteins.
(§2) Binding of 5F4 to the wild type or the mutant ORP150 proteins from the supernatant and cell lysates was also tested using Western blot assays by immunoprecipitation the ORP150 proteins from the supernatant or cell lysates using anti-FLAG antibody, and detecting binding of 5F4 to the ORP150 proteins on the Western blot. The anti-Flag M2 affinity gel (Sigma, Cat. No. A2220) was used to immuno-precipitate the recombinant human ORP150 from the supernatant and cell lysates of the transfected cells. The IP products were subjected to SDS-PAGE and then transferred onto nitrocellulose membrane for Western blotting. […] The blotting signal was detected with Immobilon Western-Chemiluminescent HRP Substrate kits (Millipore, Cat. No. WBKLS0500)
(§3) Based on the Western blotting with anti-FLAG antibody, all the deletion mutants of hORP150 were successfully expressed in Flp-In™ CHO Cells. […] To further characterize the epitope, additional mutant ORP150 proteins were generated. […]

[3] = biological target: T3, human ORP150-3x Flag with deletion of …; assay: anti-FLAG capture ELISA and Western blot
Experimental: as §1, §2, §3

binding result [1] | binding result [2] | binding result [3] | Binder
no binding |  |  | antibody 9A6.2 (antibody, mouse IgM, V domains shown, Mouse IgM, kappa) VH: EVKLVESGGGLVKPGGSLKLSCAASGFTFSSYAMSWVRQTPEKRLEWVASISSGGSTYYPDSVKGRFTISRDNARNILYLQMSSLRSEDTAMYYCARGRGYYAYYFDYWGQGTTLTVSS VL: ETTVTQSPASLSVATGEKVTIRCITSTDIDDDMNWYQQKPGEPPKLLISEGNTLRPGVPSRFSSSGYGTDFVFTIENTLSEDVADYYCLQSDNMPFTFGSGTKLEIK
 | no binding | no binding | monoclonal antibody 5F4 (antibody, mouse IgM, V domains shown, Mouse IgM, kappa, from a hybridoma; also called m5F4; murine 5F4) VH: QIQLVQSGPELKKPGETVKISCKASDYTFTDYSMHWVKQAPGKGLKWMGWINTETGEPTYADDFKGRFAFPLETSASTAYLQINNLKNEDTATYFCARNHGYNLAYWGQGTLVTVSA VL: DIVMTQSQKFMSTSVGDRVSLTCKSSQNVRTAVTWYQQKPGQSPKALIYLASNRHTGVPDRFTGSGSGTDFTLTISNVQSEDLADYFCLQHWNYPLTFGGGTKLEIK
